Measurements reported in publication PMC7007005.

Legend:
[1] = target: FMN-containing OdAu1aLOV (isolated LOV domain of Ochromonas danica Aureochrome1a) (Ochromonas danica); assay: SEC; analytical gel filtration of OdAu1aLOV in the lit state (column illuminated with 450 nm LEDs); HEPES 20 mM pH 7.4, NaCl 100 mM, MgCl2 10 mM, TCEP 0.3 mM; 100 μM protein
[2] = target: FMN-containing OdAu1aLOV (isolated LOV domain of Ochromonas danica Aureochrome1a) (Ochromonas danica); assay: SEC; concentration-dependent analytical gel filtration of lit-state OdAu1aLOV, 200 to 10 μM (Figure S6); column illuminated with 450 nm LEDs
[3] = target: T1, OdAu1abZIPLOV (Aureochrome1a bZIP-LOV), FMN cofactor (Ochromonas danica, UniProt C5NSW6); assay: EMSA; lit state (450 nm); supershifted band, putative 2:1 complex; DNA binding buffer: 20 mM HEPES pH 7.4, 100 mM NaCl, 10 mM MgCl2, 1 mM TCEP; EMSA: 20 nM DNA, 10% glycerol, BSA, poly-dI-dC, at 4 C; SEC samples incubated 30 mi
[4] = target: T2, OdAu1abZIPLOV (Aureochrome1a bZIP-LOV), 5dFMN cofactor (Ochromonas danica, UniProt C5NSW6); assay: EMSA; dark state; single shifted band, no supershift; DNA binding buffer: 20 mM HEPES pH 7.4, 100 mM NaCl, 10 mM MgCl2, 1 mM TCEP; EMSA: 20 nM DNA, 10% glycerol, BSA, poly-dI-dC, at 4 C; SEC samples incubated 30 mi
[5] = target: T1, OdAu1abZIPLOV (Aureochrome1a bZIP-LOV), …; assay: size-exclusion chromatography; dark state, 50 uM protein; DNA binding buffer: 20 mM HEPES pH 7.4, 100 mM NaCl, 10 mM MgCl2, 1 mM TCEP; EMSA: 20 nM DNA, 10% glycerol, BSA, poly-dI-dC, at 4 C; SEC samples incubated 30 mi
[6] = target: T2, OdAu1abZIPLOV (Aureochrome1a bZIP-LOV), …; assay: as above
[7] = target: T3, FMN-containing OdAu1a_(bZIPLOV) (bZIP and LOV domains of Ochromonas danica Aureochrome1a) (Ochromonas danica); assay: SEC; analytical gel filtration of OdAu1a_(bZIPLOV) in the lit state (450 nm LEDs; Figures S7-S9)
[8] = target: T3, FMN-containing OdAu1a_(bZIPLOV) (bZIP …); assay: SEC; analytical gel filtration of OdAu1a_(bZIPLOV) in the dark state (Figures S7-S9)
[9] = target: T4, 5dFMN-containing OdAu1a_(bZIPLOV) (bZIP and LOV domains of Ochromonas danica Aureochrome1a refolded with 5-deazaflavin mononucleotide) (Ochromonas danica); assay: SEC; analytical gel filtration of OdAu1a_(bZIPLOV) in the lit state (450 nm LEDs; Figures S7-S9)
[10] = target: T4, 5dFMN-containing OdAu1a_(bZIPLOV) (bZIP …); assay: SEC; analytical gel filtration of OdAu1a_(bZIPLOV) in the dark state (Figures S7-S9)

FMN-containing OdAu1aLOV (isolated LOV domain of Ochromonas danica Aureochrome1a) (domain or fragment)
stoichiometry N [1]: 2
stoichiometry N [2]: 2

B1: OdAu1a recognition DNA, TAMRA (dsDNA)
DNA 1: TGTAGCGTCTGACGTGGTTCCCAC
DNA 2: GTGGGAACCACGTCAGACGCTACA
binding result [3]: binds
binding result [4]: binds

B2: OdAu1a recognition DNA, 24 bp, unlabelled (dsDNA)
DNA 1: TGTAGCGTCTGACGTGGTTCCCAC
DNA 2: GTGGGAACCACGTCAGACGCTACA
binding result [5]: binds
binding result [6]: binds

B3: FMN-containing OdAu1a_(bZIPLOV) (bZIP and LOV domains of Ochromonas danica Aureochrome1a) (domain or fragment)
chain: EEQKIERRERNREHAKRSRVRKKFLLESLQHSVRALEEENEKLRNAIRENLQGEAEQLLTRCSCGGPSVIASDPNTATRTLDDPDYSLVKALQTAQQNFVISDPSIPDNPIVYASQGFLTLTGYALSEVLGRNCRFLQGPETDPKAVEKVRKGLERGEDTTVVLLNYRKDGSTFWNQLFIAALRDGEGNVVNYLGVQCKVSEDYAKAFLKNEENEK
modifications: not checked
stoichiometry N [7]: 2
stoichiometry N [8]: 2

B4: 5dFMN-containing OdAu1a_(bZIPLOV) (bZIP and LOV domains of Ochromonas danica Aureochrome1a refolded with 5-deazaflavin mononucleotide) (domain or fragment)
chain: B3 chain
modifications: not checked
stoichiometry N [9]: 2
stoichiometry N [10]: 2
